Positions count from the first letter of the chain named. Numbers in names are those of the source.
B1: equine IgG1 N434W (antibody, part only; not given: Variable domains, not shown: another chain or arm of the molecule)
constant: ASTTAPKVFALAPGCGTTSDSTVALGCLVSGYFPEPVKVSWNSGSLTSGVHTFPSVLQSSGFYSLSSMVTVPASTWTSETYICNVVHAASNFKVDKRIEPIPDNHQKVCDMSKCPKCPAPELLGGPSVFIFPPNPKDTLMITRTPEVTCVVVDVSQENPDVKFNWYMDGVEVRTATTRPKEEQFNSTYRVVSVLRIQHQDWLSGKEFKCKVNNQALPQPIERTITKTKGRSQEPQVYVLAPHPDELSKSKVSVTCLVKDFYPPEINIEWQSNGQPELETKYSTTQAQQDSDGSYFLYSKLSVDRNRWQQGTTFTCGVMHEALHWHYTQKNVSKNPGK
B2: equine IgG1 N434F (antibody, part only; not given: variable domains, not shown: another chain or arm of the molecule)
constant: B1 constant with W324F
B3: equine IgG7 D312C mutant (antibody, part only; not given: variable domains, not shown: another chain or arm of the molecule)
constant: ASTTAPKVFPLASHSAATSGSTVALGCLVSSYFPEPVTVSWNSGALTSGVHTFPSVLQSSGLYSLSSMVTVPASSLKSQTYICNVAHPASSTKVDKKIVIKECGGCPTCPECLSVGPSVFIFPPKPKDVLMISRTPTVTCVVVDVGHDFPDVQFNWYVDGVETHTATTEPKQEQNNSTYRVVSILAIQHKCWLSGKEFKCKVNNQALPAPVQKTISKPTGQPREPQVYVLAPHRDELSKNKVSVTCLVKDFYPTDIDIEWKSNGQPEPETKYSTTPAQLDSDGSYFLYSKLTVETNRWQQGTTFTCAVMHEALHNHYTEKSVSKSPGK
B4: equine IgG7 D312Y mutant (antibody, part only; not given: variable domains, not shown: another chain or arm of the molecule)
constant: B3 constant with C191Y
B5: equine IgG7 Y436Q mutant (antibody, part only; not given: Variable domains, not shown: another chain or arm of the molecule)
constant: B3 constant with C191D, Y317Q
B6: equine IgG7 T286F mutant (antibody, part only; not given: variable domains, not shown: another chain or arm of the molecule)
constant: B3 constant with T165F, C191D
B7: equine IgG7 T286C mutant (antibody, part only; not given: variable domains, not shown: another chain or arm of the molecule)
constant: B3 constant with T165C, C191D
B8: equine IgG7 Y436F mutant (antibody, part only; not given: variable domains, not shown: another chain or arm of the molecule)
constant: B3 constant with C191D, Y317F
B9: equine IgG7 T286S mutant (antibody, part only; not given: variable domains, not shown: another chain or arm of the molecule)
constant: B3 constant with T165S, C191D
B10: equine IgG7 D312S mutant (antibody, part only; not given: variable domains, not shown: another chain or arm of the molecule)
constant: B3 constant with C191S
B11: equine IgG7 T286M mutant (antibody, part only; not given: variable domains, not shown: another chain or arm of the molecule)
constant: B3 constant with T165M, C191D
B12: equine IgG7 T286W mutant (antibody, part only; not given: variable domains, not shown: another chain or arm of the molecule)
constant: B3 constant with T165W, C191D
B13: equine IgG7 D312P mutant (antibody, part only; not given: variable domains, not shown: another chain or arm of the molecule)
constant: B3 constant with C191P
B14: equine IgG7 D312W mutant (antibody, part only; not given: variable domains, not shown: another chain or arm of the molecule)
constant: B3 constant with C191W
B15: equine IgG7 D312K mutant (antibody, part only; not given: variable domains, not shown: another chain or arm of the molecule)
constant: B3 constant with C191K
B16: equine IgG7 T286P mutant (antibody, part only; not given: variable domains, not shown: another chain or arm of the molecule)
constant: B3 constant with T165P, C191D
B17: equine IgG7 T286Q mutant (antibody, part only; not given: variable domains, not shown: another chain or arm of the molecule)
constant: B3 constant with T165Q, C191D
B18: equine IgG7 Y436I mutant (antibody, part only; not given: Variable domains, not shown: another chain or arm of the molecule)
constant: B3 constant with C191D, Y317I
B19: equine IgG7 T286G mutant (antibody, part only; not given: variable domains, not shown: another chain or arm of the molecule)
constant: B3 constant with T165G, C191D
B20: equine IgG7 Y436A mutant (antibody, part only; not given: Variable domains, not shown: another chain or arm of the molecule)
constant: B3 constant with C191D, Y317A
B21: equine IgG7 Y436R mutant (antibody, part only; not given: variable domains, not shown: another chain or arm of the molecule)
constant: B3 constant with C191D, Y317R
B22: equine IgG7 T286D mutant (antibody, part only; not given: Variable domains, not shown: another chain or arm of the molecule)
constant: B3 constant with T165D, C191D
B23: equine IgG7 D312L mutant (antibody, part only; not given: variable domains, not shown: another chain or arm of the molecule)
constant: B3 constant with C191L
B24: equine IgG7 T286V mutant (antibody, part only; not given: Variable domains, not shown: another chain or arm of the molecule)
constant: B3 constant with T165V, C191D
B25: equine IgG7 Y436V mutant (antibody, part only; not given: Variable domains, not shown: another chain or arm of the molecule)
constant: B3 constant with C191D, Y317V
B26: equine IgG7 Y436W mutant (antibody, part only; not given: Variable domains, not shown: another chain or arm of the molecule)
constant: B3 constant with C191D, Y317W
B27: equine IgG7 D312G mutant (antibody, part only; not given: Variable domains, not shown: another chain or arm of the molecule)
constant: B3 constant with C191G
B28: equine IgG7 Y436T mutant (antibody, part only; not given: variable domains, not shown: another chain or arm of the molecule)
constant: B3 constant with C191D, Y317T
B29: equine IgG7 T286Y mutant (antibody, part only; not given: Variable domains, not shown: another chain or arm of the molecule)
constant: B3 constant with T165Y, C191D
B30: equine IgG7 T286A mutant (antibody, part only; not given: variable domains, not shown: another chain or arm of the molecule)
constant: B3 constant with T165A, C191D
B31: equine IgG7 T286R mutant (antibody, part only; not given: variable domains, not shown: another chain or arm of the molecule)
constant: B3 constant with T165R, C191D
B32: equine IgG7 D312Q mutant (antibody, part only; not given: variable domains, not shown: another chain or arm of the molecule)
constant: B3 constant with C191Q
B33: equine IgG7 Y436E mutant (antibody, part only; not given: variable domains, not shown: another chain or arm of the molecule)
constant: B3 constant with C191D, Y317E
B34: equine IgG7 T286H mutant (antibody, part only; not given: variable domains, not shown: another chain or arm of the molecule)
constant: B3 constant with T165H, C191D
B35: equine IgG7 Y436N mutant (antibody, part only; not given: Variable domains, not shown: another chain or arm of the molecule)
constant: B3 constant with C191D, Y317N
B36: equine IgG7 D312I mutant (antibody, part only; not given: variable domains, not shown: another chain or arm of the molecule)
constant: B3 constant with C191I
B37: equine IgG7 D312M mutant (antibody, part only; not given: variable domains, not shown: another chain or arm of the molecule)
constant: B3 constant with C191M
B38: equine IgG7 D312F mutant (antibody, part only; not given: Variable domains, not shown: another chain or arm of the molecule)
constant: B3 constant with C191F
B39: equine IgG7 D312V mutant (antibody, part only; not given: variable domains, not shown: another chain or arm of the molecule)
constant: B3 constant with C191V
B40: equine IgG7 Y436C mutant (antibody, part only; not given: variable domains, not shown: another chain or arm of the molecule)
constant: B3 constant with C191D, Y317C
B41: equine IgG7 Y436K mutant (antibody, part only; not given: variable domains, not shown: another chain or arm of the molecule)
constant: B3 constant with C191D, Y317K
B42: equine IgG7 Y436S mutant (antibody, part only; not given: variable domains, not shown: another chain or arm of the molecule)
constant: B3 constant with C191D, Y317S
B43: equine IgG7 Y436M mutant (antibody, part only; not given: variable domains, not shown: another chain or arm of the molecule)
constant: B3 constant with C191D, Y317M
B44: equine IgG7 D312H mutant (antibody, part only; not given: variable domains, not shown: another chain or arm of the molecule)
constant: B3 constant with C191H
B45: equine IgG7 Y436G mutant (antibody, part only; not given: variable domains, not shown: another chain or arm of the molecule)
constant: B3 constant with C191D, Y317G
B46: equine IgG7 D312R mutant (antibody, part only; not given: Variable domains, not shown: another chain or arm of the molecule)
constant: B3 constant with C191R
B47: equine IgG7 D312E mutant (antibody, part only; not given: variable domains, not shown: another chain or arm of the molecule)
constant: B3 constant with C191E
B48: equine IgG7 D312T mutant (antibody, part only; not given: variable domains, not shown: another chain or arm of the molecule)
constant: B3 constant with C191T
B49: equine IgG7 T286K mutant (antibody, part only; not given: variable domains, not shown: another chain or arm of the molecule)
constant: B3 constant with T165K, C191D
B50: equine IgG7 Y436D mutant (antibody, part only; not given: Variable domains, not shown: another chain or arm of the molecule)
constant: B3 constant with C191D, Y317D
B51: equine IgG7 T286I mutant (antibody, part only; not given: variable domains, not shown: another chain or arm of the molecule)
constant: B3 constant with T165I, C191D
B52: equine IgG7 T286L mutant (antibody, part only; not given: Variable domains, not shown: another chain or arm of the molecule)
constant: B3 constant with T165L, C191D
B53: equine IgG7 D312N mutant (antibody, part only; not given: Variable domains, not shown: another chain or arm of the molecule)
constant: B3 constant with C191N
B54: equine IgG7 T286E mutant (antibody, part only; not given: variable domains, not shown: another chain or arm of the molecule)
constant: B3 constant with T165E, C191D

What follows are binders tested against equine FcRn (large alpha subunit p51) / equine beta-2-microglobulin complex, biotinylated (equine) (UniProt P30441) (assay: SPR (Biacore), pH 6).
UniProt P30441, sequence (P30441 21-118, one chain of several): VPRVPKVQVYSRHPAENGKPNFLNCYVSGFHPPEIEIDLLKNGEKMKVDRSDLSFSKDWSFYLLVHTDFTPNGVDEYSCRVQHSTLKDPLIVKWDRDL

First: B1
Second: B2
The Kd of the first is 1.5-fold lower: 1.86 nM for the first, 2.83 nM for the second. The first binds more tightly here.

The binders below were run against equine FcRn (large alpha subunit p51) in complex with equine beta-2-microglobulin (equine) (UniProt F6XZ61) (assay: SPR (Biacore), pH 6).
UniProt F6XZ61, sequence (F6XZ61 entry or part of it, one chain of several): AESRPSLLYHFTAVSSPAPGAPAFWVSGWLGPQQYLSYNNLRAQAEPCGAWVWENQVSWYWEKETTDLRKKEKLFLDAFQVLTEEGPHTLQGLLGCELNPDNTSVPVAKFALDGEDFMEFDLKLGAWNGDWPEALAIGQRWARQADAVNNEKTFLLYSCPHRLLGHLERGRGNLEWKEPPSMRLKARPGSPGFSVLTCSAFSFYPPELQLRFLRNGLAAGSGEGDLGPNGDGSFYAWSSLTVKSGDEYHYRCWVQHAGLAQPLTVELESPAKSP

Going from B3 to B4, the Kd falls from 26.5 nM to 9.4 nM (2.8-fold). The second binds more tightly here.

B5 and B6 are within 1.5-fold of each other in Kd: 9.1 nM for the first, 7.8 nM for the second.

Going from B7 to B8, the Kd falls from 84.4 nM to 9.3 nM (9.1-fold). The second binds more tightly here.

Compared with B9, B10 is 1.8-fold lower in Kd: 17.1 nM for the first, 9.6 nM for the second. The second binds more tightly here.

B11 and B12 are within 1.5-fold of each other in Kd: 19.3 nM for the first, 15.4 nM for the second.

First: B13
Second: B14
The Kd of the first is 1.6-fold lower: 8 nM for the first, 13.2 nM for the second. The first binds more tightly here.

Compared with B15, B16 is 2.4-fold lower in Kd: 16.4 nM for the first, 6.9 nM for the second.

Going from B17 to B18, the Kd rises from 7.7 nM to 25.1 nM (3.3-fold). The first binds more tightly here.

B19 and B20 are within 1.5-fold of each other in Kd: 18.2 nM for the first, 13.3 nM for the second.

First: B21
Second: B22
The Kd of the first is 6.2-fold lower: 7.7 nM for the first, 47.5 nM for the second. The first binds more tightly here.

Going from B23 to B24, the Kd falls from 5.7 nM to 2.3 nM (2.5-fold). The second binds more tightly here.

Going from B25 to B26, the Kd rises from 6.7 nM to 28.2 nM (4.2-fold).

B27 and B28 are within 1.5-fold of each other in Kd: 38.4 nM for the first, 36.2 nM for the second.

First: B29
Second: B30
The Kd of the first is 7.4-fold lower: 14.9 nM for the first, 110 nM for the second. The first binds more tightly here.

Compared with B31, B32 is 1.7-fold higher in Kd: 7.8 nM for the first, 13.6 nM for the second.

B33 and B34 are within 1.5-fold of each other in Kd: 13.4 nM for the first, 16 nM for the second.

Going from B35 to B36, the Kd falls from 65.5 nM to 15.2 nM (4.3-fold). The second binds more tightly here.

B37 and B38 are within 1.5-fold of each other in Kd: 6.1 nM for the first, 8.6 nM for the second.

B39 and B40 are within 1.5-fold of each other in Kd: 11.3 nM for the first, 12.5 nM for the second.

Going from B41 to B42, the Kd rises from 74 nM to 169 nM (2.3-fold).

Going from B43 to B44, the Kd rises from 5.5 nM to 10.4 nM (1.9-fold). The first binds more tightly here.

Going from B45 to B46, the Kd falls from 51.7 nM to 9 nM (5.7-fold). The second binds more tightly here.

First: B47
Second: B48
The Kd of the first is 4.3-fold higher: 42.5 nM for the first, 9.9 nM for the second.

Compared with B49, B50 is 1.8-fold lower in Kd: 20.6 nM for the first, 11.6 nM for the second.

B51 and B52 are within 1.5-fold of each other in Kd: 15.8 nM for the first, 14 nM for the second.

B53 and B54 are within 1.5-fold of each other in Kd: 25.3 nM for the first, 35.5 nM for the second.

The binders below were run against equine FcRn (large alpha subunit p51) / equine beta-2-microglobulin complex, biotinylated (equine) (UniProt P30441) (assay: SPR (Biacore), pH 7.4).

Compared with B1, B2 is 2-fold higher in Kd: 7.31 µM for the first, 14.6 µM for the second. The first binds more tightly here.
